Assay results taken from US20170247475A1 (Boehringer Ingelheim, published 2017).
Where two headings read alike, the source gives them in different places. One block for each binder: values may come before it.

Legend:
[1] = target: T1, hAng2; assay: competition ELISA, blocking of hAng2 binding to hTie2
T1 construct: also called human Ang2
T1 chain: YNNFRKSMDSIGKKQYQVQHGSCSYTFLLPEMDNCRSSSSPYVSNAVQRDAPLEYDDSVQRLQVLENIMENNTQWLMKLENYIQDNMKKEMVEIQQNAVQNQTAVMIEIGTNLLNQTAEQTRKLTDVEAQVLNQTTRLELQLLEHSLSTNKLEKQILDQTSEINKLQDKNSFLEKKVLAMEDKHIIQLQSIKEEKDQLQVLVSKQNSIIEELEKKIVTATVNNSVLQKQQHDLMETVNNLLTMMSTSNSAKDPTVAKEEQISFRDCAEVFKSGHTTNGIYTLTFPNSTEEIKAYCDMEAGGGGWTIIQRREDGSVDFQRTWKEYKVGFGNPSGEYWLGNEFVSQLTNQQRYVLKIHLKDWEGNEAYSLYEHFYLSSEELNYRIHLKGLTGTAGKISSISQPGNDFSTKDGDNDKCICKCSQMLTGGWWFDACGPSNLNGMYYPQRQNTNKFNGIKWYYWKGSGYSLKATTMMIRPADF

[2] = target: T2, mAng2; assay: competition ELISA, blocking of mAng2 binding to mTie2
T2 construct: also called mouse Ang2
T2 chain: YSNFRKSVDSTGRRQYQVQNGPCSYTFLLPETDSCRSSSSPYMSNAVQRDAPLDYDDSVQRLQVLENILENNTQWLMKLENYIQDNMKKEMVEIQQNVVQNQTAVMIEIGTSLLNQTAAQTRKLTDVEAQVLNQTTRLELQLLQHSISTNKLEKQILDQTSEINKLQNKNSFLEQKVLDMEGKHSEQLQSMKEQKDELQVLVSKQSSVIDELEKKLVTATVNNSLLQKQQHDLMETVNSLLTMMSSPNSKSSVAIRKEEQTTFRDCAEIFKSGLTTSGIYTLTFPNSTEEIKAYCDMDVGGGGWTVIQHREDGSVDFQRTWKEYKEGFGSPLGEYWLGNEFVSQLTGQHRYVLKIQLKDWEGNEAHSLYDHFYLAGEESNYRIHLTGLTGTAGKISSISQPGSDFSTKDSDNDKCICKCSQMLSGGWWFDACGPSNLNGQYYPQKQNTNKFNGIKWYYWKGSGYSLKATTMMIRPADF

[3] = target: VEGF; assay: cell-based or functional assay
[4] = target: VEGF; assay: cell-based or functional assay; remark: listed apart in the source
[5] = target: T3, recombinant human VEGF121 (human, UniProt P15692-9 27-147); assay: binding ELISA, coated rhVEGF121
T3 construct: also called rhVEGF121; hVEGF121
T3 sequence (looked up): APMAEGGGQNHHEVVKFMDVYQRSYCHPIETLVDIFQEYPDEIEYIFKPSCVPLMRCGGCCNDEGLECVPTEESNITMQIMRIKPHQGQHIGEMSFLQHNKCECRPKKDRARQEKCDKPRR
Experimental: Binding to recombinant human VEGF121 is assessed via a solid phase binding ELISA. Briefly, recombinant human VEGF121 (R&D Systems, Minneapolis, Minn., USA) is coated overnight at 4° C. at 1 μg/mL in a 96-well MaxiSorp plate (Nunc, Wiesbaden, Germany). Wells are blocked with a casein solution (1% in PBS).

[6] = target: T4, recombinant human VEGF165 (human, UniProt P15692-4 27-191); assay: binding ELISA, coated rhVEGF165
T4 construct: also called hVEGF165; rhVEGF165

[7] = target: T4, recombinant human VEGF165; assay: VEGF/VEGFR1 competition AlphaScreen
Experimental: (§1) Finally, streptavidin donor beads (20 μg/ml) are added and after 1 hour of incubation in the dark, fluorescence is measured on the Envision microplate reader.

[8] = target: T4, recombinant human VEGF165; assay: VEGF/VEGFR2 competition AlphaScreen
Experimental: as §1

[9] = target: T5, human VEGF-C (human, UniProt P49767 103-227); assay: binding ELISA on coated VEGFC
T5 construct: also called hVEGF-C
T5 sequence (looked up): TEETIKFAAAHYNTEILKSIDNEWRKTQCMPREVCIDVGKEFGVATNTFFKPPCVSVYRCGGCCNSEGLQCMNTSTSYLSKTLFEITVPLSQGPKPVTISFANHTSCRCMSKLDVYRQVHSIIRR
Experimental: (§2) Binding to VEGFB, VEGFC, VEGFD and PIGF is assessed via a solid phase binding ELISA. In brief, VEGFB, VEGFC, VEGFD and PIGF (R&D Systems, Minneapolis, Minn., USA) are coated overnight at 4° C. at 1 μg/mL in a 96-well MaxiSorp plate (Nunc, Wiesbaden, Germany). Wells are blocked with a casein solution (1% in PBS). […] As positive controls serial dilutions of the appropriate receptors are taken along and detected with horseradish peroxidase (HRP)-conjugated goat anti-human IgG, Fc specific antibody (Jackson Immuno Research Laboratories Inc., West Grove, Pa., USA) and a subsequent enzymatic reaction in the presence of the substrate TMB (3,3′,5,5′-tetramentylbenzidine) (Pierce, Rockford, Ill., USA).

[10] = target: T4, recombinant human VEGF165; assay: VEGF165/hVEGFR1-Fc competition ELISA
[11] = target: T6, human PIGF (human, UniProt P49763-2 21-149, limits assumed); assay: binding ELISA on coated PIGF
T6 construct: also called hPIGF; PLGF
T6 sequence (looked up): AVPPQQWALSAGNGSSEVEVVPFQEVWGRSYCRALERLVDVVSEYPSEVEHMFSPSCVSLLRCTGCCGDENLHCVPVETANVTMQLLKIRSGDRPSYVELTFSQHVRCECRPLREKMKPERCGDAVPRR
Experimental: as §2

[12] = target: T4, recombinant human VEGF165; assay: hVEGF165/hVEGFR2-Fc competition ELISA
[13] = target: T7, human VEGF-B (human, UniProt P49765-2 22-188, limits assumed); assay: binding ELISA on coated VEGFB
T7 construct: also called hVEGF-B
T7 sequence (looked up): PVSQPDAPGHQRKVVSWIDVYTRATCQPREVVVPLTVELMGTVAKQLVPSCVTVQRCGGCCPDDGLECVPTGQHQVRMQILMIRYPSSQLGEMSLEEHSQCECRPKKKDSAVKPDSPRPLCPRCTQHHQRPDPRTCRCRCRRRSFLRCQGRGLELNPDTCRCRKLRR
Experimental: as §2

[14] = target: T8, human VEGF-D (human, UniProt O43915 93-201); assay: binding ELISA on coated VEGF D
T8 construct: also called hVEGF-D
T8 sequence (looked up): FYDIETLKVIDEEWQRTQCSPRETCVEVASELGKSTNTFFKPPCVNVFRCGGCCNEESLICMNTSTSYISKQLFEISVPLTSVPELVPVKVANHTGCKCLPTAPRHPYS
Experimental: as §2

[15] = target: T4, recombinant human VEGF165; assay: VEGF165/hVEGFR1-Fc competition AlphaScreen
Experimental: as §1

[16] = target: T4, recombinant human VEGF165; assay: hVEGF165/hVEGFR2-Fc competition AlphaScreen
Experimental: as §1

[17] = target: T9, recombinant mouse VEGF164 (mouse, UniProt Q00731-2 27-190); assay: binding ELISA on coated mouse VEGF164
T9 construct: biotinylated in the mVEGFR2 AlphaScreen; also called rmVEGF164; mVEGF164
T9 sequence (looked up): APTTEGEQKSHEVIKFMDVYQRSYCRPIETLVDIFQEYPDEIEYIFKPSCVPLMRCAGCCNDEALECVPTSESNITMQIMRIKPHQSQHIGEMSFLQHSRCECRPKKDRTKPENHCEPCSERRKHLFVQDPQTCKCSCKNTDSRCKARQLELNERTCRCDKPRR
Experimental: Cross-reactivity to mouse VEGF164 is determined using a binding ELISA. […] Wells are blocked with a casein solution (1% in PBS). […] A mouse VEGF164 reactive mAb is included as positive control.

[18] = target: T4, recombinant human VEGF165; assay: SPR Biacore T100, hVEGF165 on chip, Two State Reaction model
Experimental: (§3) Samples are injected for 2 min and allowed to dissociate up to 20 min at a flow rate of 45 μI/min. In between sample injections, the chip surface is regenerated with 100 mM HCl. HBS-EP+(Hepes buffer pH7.4+EDTA) is used as running buffer. Binding curves are fitted using a Two State Reaction model by Biacore T100 Evaluation Software v2.0.1.
(§4) ^{(a)}KD = kd1/kₐ₁ * (kd2/(kd2 + kₐ₂)) ^{(b)}Curves are fitted using a Two State Reaction model by Biacore T100 Evaluation Software v2.0.1

[19] = target: T4, recombinant human VEGF165; assay: ka1; SPR Biacore T100, hVEGF165 on chip, Two State Reaction model
Experimental: as §3, §4

[20] = target: T4, recombinant human VEGF165; assay: kd1; SPR Biacore T100, hVEGF165 on chip, Two State Reaction model
Experimental: as §3, §4

[21] = target: T4, recombinant human VEGF165; assay: SPR Biacore T100, Two State Reaction model; KD = kd1/ka1 * (kd2/(kd2 + ka2))
Experimental: as §3, §4

[22] = target: VEGF; assay: cell-based or functional assay; remark: listed apart in the source
[23] = target: T4, recombinant human VEGF165; assay: Biacore on VEGF165 (Example 5.5)
Experimental: as §3

[24] = target: T4, recombinant human VEGF165; assay: VEGF165/VEGFR2 blocking AlphaScreen

- IC50 (read off the curve) [1]: ~0.02 nM
- IC50 (read off the curve) [2]: ~0.03 nM
B1: ANGBII00002 (VHH)
bivalent VHH: EVQLVESGGGLVQAGGSLRLSCAASGFTFDDYALGWFRQAAGKEREGVSCIRCSDGSTYYADSVKGRFTISSDNAKNTVYLQMNSLKPEDTAVYYCAASIVPRSKLEPYEYDAWGQGTLVTVSSGGGGSGGGGSGGGGSGGGGSGGGGSGGGGSGGGGSGGGGSEVQLVESGGGLVQAGGSLRLSCAASGFTFDDYALGWFRQAAGKEREGVSCIRCSDGSTYYADSVKGRFTISSDNAKNTVYLQMNSLKPEDTAVYYCAASIVPRSKLEPYEYDAWGQGTLVTVSS
notes: homodimeric anti-Ang2 VHH; also called 1D01-40gs-1D01

- % inhibition, VEGF HUVEC proliferation assay [3]: 96%
- IC50 (nM), VEGF HUVEC proliferation assay [3]: 0.38 nM
- % inhibition, VEGF HUVEC Erk phosphorylation assay [4]: 94%
- IC50 (nM), VEGF HUVEC Erk phosphorylation assay [4]: 0.23 nM
- EC50 [5]: 0.325 nM
- EC50 [6]: 0.32 nM
- % inhibition [7]: 100%
- IC50 [7]: 0.046 nM
- IC50 [8]: 0.012 nM
- binding result [9]: no binding (tested: 5e-7 M)
- % inhibition [10]: 92%
- IC50 [10]: 0.326 nM
- binding result [11]: no binding (tested: 5e-7 M)
- % inhibition [12]: 100%
- IC50 [12]: 0.292 nM
- binding result [13]: no binding (tested: 5e-7 M)
- binding result [14]: no binding (tested: 5e-7 M)
- % inhibition [15]: 98%
- IC50 [15]: 0.069 nM
- % inhibition [16]: 100%
- IC50 [16]: 0.05 nM
- binding result [17]: binds
- ka2 [18]: 0.026 s⁻¹
- kd2 [18]: 0.00028 s⁻¹
- kon [19]: 300000 M⁻¹ s⁻¹
- koff [20]: 0.013 s⁻¹
- Kd [21]: 0.47 nM
B2: VEGFBII024 (VHH)
chain: EVQLVESGGGLVQTGDSLRLSCEVSGRTFSSYSMGWFRQAQGKEREFVVAISKGGYKYDSVSLEGRFTISKDNAKNTVYLQINSLKPEDTAVYYCASSRAYGSSRLRLADTYEYWGQGTQVTVSSGGGGSGGGGSGGGGSGGGGSGGGGSGGGGSGGGGSGGGGSEVQLVESGGGLVQAGGSLRLSCTASGSAFKSYRMGWFRRTPGKEDEFVASISWTYGSTFYADSVKGRFTMSRDKAKNAGYLQMNSLKPEDTALYYCAAGAQSDRYNIRSYDYWGQGTQVTVSS
notes: biparatopic bivalent VHH in one chain; also called VEGFBII23B04-40GS-86H09; VEGFBI024

- % inhibition, VEGF HUVEC proliferation assay [22]: 78%
- IC50 (nM), VEGF HUVEC proliferation assay [22]: 1.54 nM
- Kd [23]: 0.27 nM
- % inhibition [24]: 100%
- IC50 [24]: 0.3 nM
B3: VEGFBII037 (VHH)
VHH: DVQLVESGGGLVQPGGSLRLSCAASGRTFSSYSMGWFRQAPGKEREFVVAISKGGYKYDAVSLEGRFTISRDNAKNTVYLQMNSLRPEDTAVYYCASSRAYGSSRLRLADTYEYWGQGTLVTVSS
notes: also called VEGFBII0037
